Measurements: PMC5609113, “Substrate Specificity and Inhibitor Sensitivity of Plant UDP-Sugar Producing Pyrophosphorylases” (Frontiers in Plant Science, 2017)

Legend:
[1] = target: T1, Arabidopsis UGPase2 (Arabidopsis thaliana, UniProt P57751); assay: Pi release from PPi, phosphomolybdate colorimetry; format: biochemical; settings: 1 mM Glc-1-P; 1 mM UTP; 5 mM MgCl2; pH 7.5; room temperature
T1 construct: gene UGP1; recombinant, expressed in E. coli, purified to homogeneity as earlier reported

[2] = test system: O=P(O)(O)OP(=O)(O)O; assay: purified protein; format: biochemical, Arabidopsis thaliana; settings: reverse reaction, co-substrate UDP-Glc, 5 mM MgCl2, pH 7.5
[3] = test system: O=c1ccn([C@@H]2O[C@H](CO[P@@](=O)(O)O[P@@](=O)(O)O[C@H]3O[C@H](CO)[C@@H](O)[C@H](O)[C@H]3O)[C@@H](O)[C@H]2O)c(=O)[nH]1; assay: purified protein; format: biochemical, Arabidopsis thaliana; settings: reverse reaction, co-substrate PPi, 5 mM MgCl2, pH 7.5
[4] = test system: CC(=O)N[C@H]1[C@@H](OP(=O)(O)O)O[C@H](CO)[C@H](O)[C@@H]1O; assay: Pi release from PPi, phosphomolybdate colorimetry; format: biochemical, Arabidopsis thaliana; settings: forward reaction, co-substrate UTP, 5 mM MgCl2, pH 7.5, room temperature
[5] = test system: O=P(O)(O)O[C@H]1O[C@H](CO)[C@@H](O)[C@H](O)[C@H]1O; assay: Pi release from PPi, phosphomolybdate colorimetry; format: biochemical, Arabidopsis thaliana; settings: forward reaction, co-substrate UTP, 5 mM MgCl2, pH 7.5, room temperature
[6] = test system: O=c1ccn([C@@H]2O[C@H](COP(=O)(O)OP(=O)(O)OP(=O)(O)O)[C@@H](O)[C@H]2O)c(=O)[nH]1; assay: Pi release from PPi, phosphomolybdate colorimetry; format: biochemical, Arabidopsis thaliana; settings: forward reaction, co-substrate GalNAc-1-P, 5 mM MgCl2, pH 7.5, room temperature
[7] = test system: O=P(O)(O)O[C@H]1O[C@H](CO)[C@@H](O)[C@H](O)[C@H]1O; assay: Pi release from PPi, phosphomolybdate colorimetry; format: biochemical, Hordeum vulgare; settings: forward reaction, co-substrate UTP, 5 mM MgCl2, pH 7.5, room temperature
[8] = target: T2, barley UGPase (Hordeum vulgare, UniProt Q43772); assay: Pi release from PPi, phosphomolybdate colorimetry; format: biochemical; settings: forward reaction, 5 mM MgCl2, pH 7.5, room temperature
T2 construct: recombinant, expressed in E. coli, purified to homogeneity as earlier reported

[9] = target: T3, Arabidopsis UGPase1 (Arabidopsis thaliana, UniProt Q9M9P3); assay: Pi release from PPi, phosphomolybdate colorimetry; format: biochemical; settings: forward reaction; 5 mM MgCl2; pH 7.5; room temperature; estimate, clouding at and above 3 mM
T3 construct: gene UGP2; recombinant, expressed in E. coli, purified to homogeneity as earlier reported

[10] = test system: C[C@H]1O[C@H](OP(=O)(O)O)[C@H](O)[C@@H](O)[C@H]1O; assay: Pi release from PPi, phosphomolybdate colorimetry; format: biochemical, Arabidopsis thaliana; settings: forward reaction, co-substrate UTP, 5 mM MgCl2, pH 7.5, room temperature
[11] = test system: O=C(O)[C@H]1O[C@H](OP(=O)(O)O)[C@H](O)[C@@H](O)[C@H]1O; assay: Pi release from PPi, phosphomolybdate colorimetry; format: biochemical, Arabidopsis thaliana; settings: forward reaction, co-substrate UTP, 5 mM MgCl2, pH 7.5, room temperature

T2 sequence (Q43772 whole entry): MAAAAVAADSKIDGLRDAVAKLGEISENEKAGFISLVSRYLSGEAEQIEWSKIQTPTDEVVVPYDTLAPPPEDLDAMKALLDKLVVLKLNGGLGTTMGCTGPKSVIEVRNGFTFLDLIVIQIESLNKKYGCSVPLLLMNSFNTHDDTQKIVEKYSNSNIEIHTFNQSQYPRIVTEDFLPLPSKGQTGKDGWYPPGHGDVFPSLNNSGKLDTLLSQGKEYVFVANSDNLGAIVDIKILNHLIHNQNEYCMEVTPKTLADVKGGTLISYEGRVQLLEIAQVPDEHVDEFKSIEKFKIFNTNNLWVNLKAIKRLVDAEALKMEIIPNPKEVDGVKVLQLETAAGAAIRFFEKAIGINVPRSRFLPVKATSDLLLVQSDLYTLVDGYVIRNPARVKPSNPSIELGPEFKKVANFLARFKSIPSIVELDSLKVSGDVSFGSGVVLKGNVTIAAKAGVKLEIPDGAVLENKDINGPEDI
T1 sequence (P57751 2-470): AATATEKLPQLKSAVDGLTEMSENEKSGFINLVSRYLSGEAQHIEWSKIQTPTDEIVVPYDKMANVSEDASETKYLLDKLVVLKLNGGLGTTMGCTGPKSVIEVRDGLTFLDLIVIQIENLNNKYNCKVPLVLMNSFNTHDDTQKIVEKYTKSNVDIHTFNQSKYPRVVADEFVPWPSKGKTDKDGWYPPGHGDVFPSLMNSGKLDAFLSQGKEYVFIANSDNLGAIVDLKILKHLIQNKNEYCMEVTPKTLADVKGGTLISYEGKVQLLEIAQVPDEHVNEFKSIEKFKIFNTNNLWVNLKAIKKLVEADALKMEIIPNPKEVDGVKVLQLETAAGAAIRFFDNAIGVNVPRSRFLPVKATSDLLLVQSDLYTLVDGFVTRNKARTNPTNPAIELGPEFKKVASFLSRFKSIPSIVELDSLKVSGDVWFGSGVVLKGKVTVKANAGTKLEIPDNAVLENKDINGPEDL
T3 sequence (Q9M9P3 2-469): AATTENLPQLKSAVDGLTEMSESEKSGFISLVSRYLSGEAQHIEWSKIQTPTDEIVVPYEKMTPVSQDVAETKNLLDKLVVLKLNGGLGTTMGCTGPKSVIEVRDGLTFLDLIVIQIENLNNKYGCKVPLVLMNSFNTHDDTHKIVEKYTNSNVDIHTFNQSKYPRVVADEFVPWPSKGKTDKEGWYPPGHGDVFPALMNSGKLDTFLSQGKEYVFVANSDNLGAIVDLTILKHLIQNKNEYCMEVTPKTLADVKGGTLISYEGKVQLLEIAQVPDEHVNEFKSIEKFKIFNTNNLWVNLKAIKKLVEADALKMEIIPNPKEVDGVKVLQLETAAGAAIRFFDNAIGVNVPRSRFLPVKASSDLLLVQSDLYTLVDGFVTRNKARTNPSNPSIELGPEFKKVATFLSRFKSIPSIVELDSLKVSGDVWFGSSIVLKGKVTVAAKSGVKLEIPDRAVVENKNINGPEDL

## O=P(O)(O)O[C@H]1O[C@H](CO)[C@@H](O)[C@H](O)[C@H]1O [Glc-1-P]
[1]
  Pi release from PPi, phosphomolybdate colorimetry: plant UGPases are highly specific for Glc-1-P and UTP as substrates

## Arabidopsis UAGPase2 (Arabidopsis thaliana)
[2]
  Km: 0.32 mM
[3]
  Km: 0.21 mM
[4]
  Km: 1.0 mM
[5]
  Km: 3.2 mM
[6]
  Km: 3 mM

## O=c1ccn([C@@H]2O[C@H](COP(=O)(O)OP(=O)(O)OP(=O)(O)O)[C@@H](O)[C@H]2O)c(=O)[nH]1 [UTP]
[1]
  Pi release from PPi, phosphomolybdate colorimetry: plant UGPases are highly specific for Glc-1-P and UTP as substrates

## barley UGPase (Hordeum vulgare)
[7]
  Km: 0.45 mM

## O=P(O)(O)O[C@]1(CO)O[C@H](CO)[C@@H](O)[C@@H]1O [Fru-2-P]
[8]
  Km: > 10 mM

## O=P(O)(O)O[C@H]1O[C@H](CO)[C@H](O)[C@H](O)[C@H]1O [Gal-1-P]
[8]; estimate from near-linear rate up to 10 mM
  Km: > 10 mM

## O=P(O)(O)OCC1(O)O[C@H](CO)[C@@H](O)[C@@H]1O (some centres unmarked) [Fru-1-P]
[8]; estimate, clouding at and above 3 mM
  Km: > 10 mM
[9]
  Km: > 10 mM

## Arabidopsis USPase (Arabidopsis thaliana)
[10]
  Km: 3.4 mM
[11]
  Km: 1.3 mM
